Source: CN106905431A (XUHUA (SHANGHAI) BIOLOGICAL RES AND DEV CENTER CO LTD, dated 2017)

How the values were obtained:
[1] = biological target: T1, 人补体D因子 (human complement Factor D) (human, UniProt P00746 26-253); assay: ELISA on coated human Factor D and BLI
T1 construct: Bought protein; also called 人D因子; human CFD

[2] = biological target: T1, 人补体D因子 (human complement Factor D); assay: SPR (Biacore T200), Fab captured on CM5 chip
[3] = biological target: T1, 人补体D因子 (human complement Factor D); assay: SPR (Biacore T200), full-length antibody captured by anti-human IgG Fc on CM5, antigen in flow, 1:1 model

T1 sequence (P00746 26-253 limits assumed): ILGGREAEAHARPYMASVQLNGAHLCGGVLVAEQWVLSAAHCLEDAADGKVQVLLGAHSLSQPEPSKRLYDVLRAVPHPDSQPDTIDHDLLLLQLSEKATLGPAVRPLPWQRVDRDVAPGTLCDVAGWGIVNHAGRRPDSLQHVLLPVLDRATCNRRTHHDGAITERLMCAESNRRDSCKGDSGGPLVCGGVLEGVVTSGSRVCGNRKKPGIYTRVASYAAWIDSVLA

B1: 抗人D因子鼠源单克隆抗体 Mab25 (antibody, V domains shown)
VH: AVQLQQSGPELVKPGASVKMSCKASGYTFTSYVINWMKQKPGQGLEWIGYINPYIDDSEYNEKFEGKATLTSDKTSSIAYMELSSLTSEDSAVYYCAREGPAFAYWGQGTLVTVSA
VL: DILLTQTPLSLPVSLGDHASVSCRSSQNLVHSNGDTYLEWYLQKPGQSPKLLIYKVSTRFSGVPDRFSGSGSGTDFTLKISRVEAEDLGVYYCFQGSHVPPTFGGGTKLEIK
notes: Mouse hybridoma antibody; The heavy chain was cloned with a primer for the mouse IgG1 constant region; also called 杂交瘤细胞株25
[1]
  binding result: binds

B2: 人源化Fab克隆 AS01237 (Fab, V domains shown)
VH: EVQLVQSGAEVKKPGASVKVSCKASGYTFTSYVINWVRQAPGQGLEWMGYINPYIDDSEYNEKFEGRVTMTRNTSISTAYMELSSLRSEDTAVYYCAREGPAFAYWGQGTLVTVSS
VL: DIVMTQTPLSLSVTPGQPASISCRSSQNLVHSNGDTYLEWYQQKPGQPPKLLIYKVSTRFSGVPDRFSGSGSGTDFTLKISRVEAEDVGVYYCFQGSHVPPTFGQGTKVEIK
notes: Fab fragment with a SASA tag, as screened on Biacore; also called AS01237 Fab
[2]
  binding result: binds

B3: 人源化Fab克隆 AS01328 (Fab, V domains shown)
VH: QVQLVQSGSELKKPGASVKVSCKASGYTFTSYVINWVRQATGQGLEWMGYINPYIDDSEYNEKFEGRVTMTRDTSTSTVYMELSSLRSEDTAVYYCAREGPAFAYWGQGTLVTVSS
VL: DIVMTQTPLSLSVTPGEPASISCRSSQNLVHSNGDTYLEWYLQKPGQAPRLLIYKVSTRFSGVPDRFSGSGSGTDFTLKISRVEAEDVGVYYCFQGSHVPPTFGQGTKVEIK
notes: Fab fragment with a SASA tag, as screened on Biacore; also called AS01328 Fab
[2]
  binding result: binds

B4: 抗人D因子人源化抗体 AS01328 (全长抗体) (antibody, V domains shown)
VH: QVQLVQSGSELKKPGASVKVSCKASGYTFTSYVINWVRQATGQGLEWMGYINPYIDDSEYNEKFEGRVTMTRDTSTSTVYMELSSLRSEDTAVYYCAREGPAFAYWGQGTLVTVSS
VL: DIVMTQTPLSLSVTPGEPASISCRSSQNLVHSNGDTYLEWYLQKPGQAPRLLIYKVSTRFSGVPDRFSGSGSGTDFTLKISRVEAEDVGVYYCFQGSHVPPTFGQGTKVEIK
notes: Full-length antibody from pTT5 in HEK293, protein A purified, captured by anti-human IgG Fc
[3]
  binding result: binds

B5: 人源化Fab克隆 AS01326 (Fab, V domains shown)
VH: QVQLVQSGSELKKPGASVKVSCKASGYTFTSYVINWVRQMPGKGLEWMGYINPYIDDSEYNEKFEGRVTMTRDTSISTAYMELSRLRSDDTAVYYCAREGPAFAYWGQGTLVTVSS
VL: DVVMTQSPLSLPVTLGQPASISCRSSQNLVHSNGDTYLEWYLQKPGQPPQLLIYKVSTRFSGVPDRFSGSGSGTDFTLKISRVEAEDFGVYYCFQGSHVPPTFGQGTKVEIK
notes: Fab fragment with a SASA tag, as screened on Biacore; also called AS01326 Fab
[2]
  binding result: binds

B6: 抗人D因子人源化抗体 AS01237 (全长抗体) (antibody, V domains shown)
VH: EVQLVQSGAEVKKPGASVKVSCKASGYTFTSYVINWVRQAPGQGLEWMGYINPYIDDSEYNEKFEGRVTMTRNTSISTAYMELSSLRSEDTAVYYCAREGPAFAYWGQGTLVTVSS
VL: DIVMTQTPLSLSVTPGQPASISCRSSQNLVHSNGDTYLEWYQQKPGQPPKLLIYKVSTRFSGVPDRFSGSGSGTDFTLKISRVEAEDVGVYYCFQGSHVPPTFGQGTKVEIK
notes: as for B4
[3]
  binding result: binds

B7: 抗人D因子人源化抗体 AS01326 (全长抗体) (antibody, V domains shown)
VH: QVQLVQSGSELKKPGASVKVSCKASGYTFTSYVINWVRQMPGKGLEWMGYINPYIDDSEYNEKFEGRVTMTRDTSISTAYMELSRLRSDDTAVYYCAREGPAFAYWGQGTLVTVSS
VL: DVVMTQSPLSLPVTLGQPASISCRSSQNLVHSNGDTYLEWYLQKPGQPPQLLIYKVSTRFSGVPDRFSGSGSGTDFTLKISRVEAEDFGVYYCFQGSHVPPTFGQGTKVEIK
notes: as for B4
[3]
  binding result: binds

B8: 抗人D因子嵌合抗体 (Mab25的嵌合抗体, 全长) (antibody, V domains shown)
VH: AVQLQQSGPELVKPGASVKMSCKASGYTFTSYVINWMKQKPGQGLEWIGYINPYIDDSEYNEKFEGKATLTSDKTSSIAYMELSSLTSEDSAVYYCAREGPAFAYWGQGTLVTVSA
VL: DILLTQTPLSLPVSLGDHASVSCRSSQNLVHSNGDTYLEWYLQKPGQSPKLLIYKVSTRFSGVPDRFSGSGSGTDFTLKISRVEAEDLGVYYCFQGSHVPPTFGGGTKLEIK
notes: Chimeric form of Mab25 (mouse variable regions on human constant regions), compared with the humanised antibodies in the Biacore assay
[3]
  binding result: binds
